According to patent US9567379 (UNIVERSITY OF CHICAGO, dated 2017):

Columns and labels:
[1] = biological target: T1, human prothrombin (human, UniProt P00734 44-622); test: SPR (BIAcore 3000), human prothrombin amine-coupled to CM5 chip, vWbp injected, 1:1 model; target prothrombin
T1 construct: Amine-coupled to a CM5 chip

[2] = biological target: T2, human fibrinogen (human, UniProt P02671 20-644; P02675 31-491; P02679 27-437); test: SPR (BIAcore 3000), human fibrinogen amine-coupled to CM5 chip, vWbp injected, 1:1 model; target fibrinogen
T2 construct: Amine-coupled to a CM5 chip
T2 sequence 1: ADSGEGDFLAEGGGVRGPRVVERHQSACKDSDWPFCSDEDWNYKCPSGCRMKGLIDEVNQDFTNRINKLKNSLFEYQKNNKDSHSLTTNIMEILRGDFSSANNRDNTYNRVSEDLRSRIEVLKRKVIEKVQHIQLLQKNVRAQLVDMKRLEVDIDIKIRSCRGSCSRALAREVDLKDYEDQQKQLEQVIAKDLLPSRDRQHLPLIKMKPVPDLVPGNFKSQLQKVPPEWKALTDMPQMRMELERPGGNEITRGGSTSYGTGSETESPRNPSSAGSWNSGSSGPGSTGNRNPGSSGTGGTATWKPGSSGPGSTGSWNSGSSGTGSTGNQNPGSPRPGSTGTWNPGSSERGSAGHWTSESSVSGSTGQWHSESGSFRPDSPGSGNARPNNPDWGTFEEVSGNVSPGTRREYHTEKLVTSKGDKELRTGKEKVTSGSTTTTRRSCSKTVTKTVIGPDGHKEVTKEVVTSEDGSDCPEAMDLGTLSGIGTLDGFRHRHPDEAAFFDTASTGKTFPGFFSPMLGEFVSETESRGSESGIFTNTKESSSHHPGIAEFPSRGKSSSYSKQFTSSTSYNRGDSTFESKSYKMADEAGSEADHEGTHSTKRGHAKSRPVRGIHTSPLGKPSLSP
T2 sequence 2: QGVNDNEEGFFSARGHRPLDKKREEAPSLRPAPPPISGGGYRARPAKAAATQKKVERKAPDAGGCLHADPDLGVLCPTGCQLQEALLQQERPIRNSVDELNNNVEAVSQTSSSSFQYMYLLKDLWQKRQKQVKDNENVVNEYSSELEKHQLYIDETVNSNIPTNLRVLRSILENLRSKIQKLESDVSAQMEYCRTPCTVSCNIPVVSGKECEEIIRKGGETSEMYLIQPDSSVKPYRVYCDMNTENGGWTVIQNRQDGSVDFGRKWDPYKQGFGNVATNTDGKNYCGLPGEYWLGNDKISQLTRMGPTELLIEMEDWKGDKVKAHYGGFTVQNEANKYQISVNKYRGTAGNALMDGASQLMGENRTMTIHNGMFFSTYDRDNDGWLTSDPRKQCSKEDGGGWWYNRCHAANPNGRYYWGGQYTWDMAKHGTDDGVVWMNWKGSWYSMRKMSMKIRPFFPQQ
T2 sequence 3: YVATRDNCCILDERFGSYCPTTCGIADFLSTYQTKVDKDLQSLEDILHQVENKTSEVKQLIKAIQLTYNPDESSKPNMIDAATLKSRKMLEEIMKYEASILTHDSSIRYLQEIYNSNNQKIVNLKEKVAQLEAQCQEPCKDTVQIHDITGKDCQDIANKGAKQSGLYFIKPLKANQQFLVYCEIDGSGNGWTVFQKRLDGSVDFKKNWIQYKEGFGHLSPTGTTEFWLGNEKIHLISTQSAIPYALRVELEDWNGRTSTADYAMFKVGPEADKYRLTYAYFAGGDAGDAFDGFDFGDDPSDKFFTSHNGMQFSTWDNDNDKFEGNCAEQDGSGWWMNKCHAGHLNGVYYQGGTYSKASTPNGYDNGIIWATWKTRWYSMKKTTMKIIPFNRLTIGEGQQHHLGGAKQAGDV

[3] = biological target: T1, human prothrombin; test: SPR (BIAcore 3000), human prothrombin amine-coupled to CM5 chip, Coa injected at 0-75 nM, 1:1 model
[4] = biological target: T2, human fibrinogen; test: SPR (BIAcore 3000), human fibrinogen amine-coupled to CM5 chip, Coa injected, 1:1 model

B1: von Willebrand factor binding protein (vWbp), recombinant mature protein with the His6 tag removed by Factor Xa (other)
chain: VVSGEKNPYVSESLKLTNNKNKSRTVEEYKKSLDDLIWSFPNLDNERFDNPEYKEAMKKYQQRFMAEDEALKKFFSEEKKIKNGNTDNLDYLGLSHERYESVFNTLKKQSEEFLKEIEDIKKDNPELKDFNEEEQLKCDLELNKLENQILMLGKTFYQNYRDDVESLYSKLDLIMGYKDEERANKKAVNKRMLENKKEDLETIIDEFFSDIDKTRPNNIPVLEDEKQEEKNHKNMAQLKSDTEAAKSDESKRSKRSKRSLNTQNHKPASQEVSEQQKAEYDKRAEERKARFLDNQKIKKTPVVSLEYDFEHKQRIDNENDKKLVVSAPTKKPTSPTTYTETTTQVPMPTVERQTQQQIIYNAPKQLAGLNGESHDFTTTHQSPTTSNHTHNNVVEFEETSALPGRKSGSLVGISQIDSSHLTEREKRVIKREHVREAQKLVDNYKDTHSYKDRINAQQKVNTLSEGHQKRFNKQINKVYNGK
notes: also called functionally active vWbp
Kd [1]: 38.4 nM
Kd [2]: 484 nM

B2: coagulase (Coa), recombinant mature protein with the His6 tag removed by Factor Xa (other)
chain: IVTKDYSGKSQVNAGSKNGTLIDSRYLNSALYYLEDYIIYAIGLTNKYEYGDNIYKEAKDRLLEKVLREDQYLLERKKSQYEDYKQWYANYKKENPRTDLKMANFHKYNLEELSMKEYNELQDALKRALDDFHREVKDIKDKNSDLKTFNAAEEDKATKEVYDLVSEIDTLVVSYYGDKDYGEHAKELRAKLDLILGDTDNPHKITNERIKKEMIDDLNSIIDDFFMETKQNRPKSITKYNPTTHNYKTNSDNKPNFDKLVEETKKAVKEADDSWKKKTVKKYGETETKSPVVKEEKKVEEPQAPKVDNQQEVKTTAGKAEETTQPVAQPLVKIPQGTITGEIVKGPEYPTMENKTVQGEIVQGPDFLTMEQSGPSLSNNYTNPPLTNPILEGLEGSSSKLEIKPQGTESTLKGTQGESSDIEVKPQATETTEASQYGPRPQFNKTPKYVKYRDAGTGIREYNDGTFGYEARPRFNKPSETNAYNVTTHANGQVSYGARPTYKKPSETNAYNVTTHANGQVSYGARPTQNKPSKTNAYNVTTHGNGQVSYGARPTQNKPSKTNAYNVTTHANGQVSYGARPTYKKPSKTNAYNVTTHADGTATYGPRVTK
notes: also called functionally active Coa
Kd [3]: 28 nM
Kd [4]: 93.1 nM
